Test results as given in US20250009856A1, “METHODS FOR TREATING RESPIRATORY DISEASES” (MUCPharm Pty Ltd, priority 2021, published 2025).

B1: DNASE: enzyme hydrolysing phosphodiester bonds of dsDNA; marketed under the brand name Pulmozyme for cystic fibrosis sputa (protein, UniProt P24855 23-282, looked up)
Deoxyribonuclease-1: LKIAAFNIQTFGETKMSNATLVSYIVQILSRYDIALVQEVRDSHLTAVGKLLDNLNQDAPDTYHYVVSEPLGRNSYKERYLFVYRPDQVSAVDSYYYDDGCEPCGNDTFNREPAIVRFFSRFTEVREFAIVPLHAAPGDAVAEIDALYDVYLDVQEKWGLEDVMLMGDFNAGCSYVRPSQWSSIRLWTSPTFQWLIPDSADTTATPTHCAYDRIVVAGMLLRGAVVPDSALPFNFQAAYGLSDQLAQAISDHYPVEVMLK

What was measured:
[1] = system: New Zealand white rabbits; experiment: Pilot study: safety of inhaled bromelain in rabbits; conditions: rabbit, in vivo
From the text: In this pilot study. […] Ten minutes waiting period was kept between Salbutamol administration and treatment. Each rabbit received one cumulative dose of bromelain using a nebulizer and a v-gel supraglottal airway device as below. The pilot study was divided into 2 experiments as follows:
Experiment 1: Two rabbits were used in the first bromelain aerosol administration experiment. The first rabbit received an aerosol of physiological saline solution (0.9% NaCl), the second rabbit received aerosolized bromelain 0.1 mg/mL (accumulative dose of 0.19 mg in 1.9 mL saline), over 16 min inhalation period (Table 1).
Experiment 2: Three rabbits were used in the second bromelain aerosol administration experiment. The first rabbit received an aerosol of physiological saline solution (0.9% NaCl), the second one received aerosolized low dose of bromelain 0.01 mg/mL (accumulative dose of 0.025 mg bromelain in 2.5 mL saline), the third rabbit received aerosolized high dose of bromelain 0.1 mg/mL (accumulative dose of 0.25 mg bromelain in 2.5 mL saline), over 11 min inhalation period.
Rabbits were euthanized 48 h post-treatment using IV Sodium pentobarbitone 100 mg/kg while animals were sedated using isoflurane.

[2] = Sputum flow speed after mixing with BromAc, DNase and combinations; conditions: BR 250 ug/ml, NAC 20 mg/ml where present, 1 hour, 37 deg C
Experimental: (§1) Artificial sputa was prepared following methodology with ingredients as in earlier experiments. To 1.5 ml of artificial sputa in a vial was added 0.5 ml of reagent containing the required bromelain, NAC, DNase and their combinations. Control vials included 0.5 ml of PBS only. The mixture was vortex mixed and incubated in a shaker water bath at 37 deg C. At the end of 1 hour, the samples were retrieved, vortex mixed and equilibrated to ambient room temperature before measuring dynamic viscosity and pipette flow.
(§2) Dynamic viscosity was determined using the capillary tube method as in earlier experiments, whilst the pipette flow was evaluated using a 0.5 ml pipette inclined at 60 deg angle. The pipette flow was calculated as shown below.
Pipette flow (€)=0.45 ml sputa/time to empty (sec).

[3] = Dynamic viscosity after mixing with BromAc, DNase and combinations; conditions: for Dynamic viscosity (¥): heads: BR(25 ug/ml), NAC(20 mg/ml), BR(250 ug/ml) + NAC(20 ug/ml)
Experimental: as §1, §2

| Molecule | activities, food and drink intake, breathing [1] | Sputum flow speed (€) ([2]; plus DNASE 2.0 ug/ml) [mL/s] | Sputum flow speed (€) ([2]; plus DNASE 4.0 ug/ml) [mL/s] | Sputum flow speed (€) ([2]; plus DNASE 6.0 ug/ml) [mL/s] | Sputum flow speed (€) ([2]; plus DNASE 8.0 ug/ml) [mL/s] | Sputum flow speed (€) ([2]; plus DNASE 20 ug/ml) [mL/s] | Sputum flow speed (€) ([2]; plus DNASE 10. ug/ml) [mL/s] | effect on dynamic viscosity compared with other treatment groups ([3]; DNase 2-20 μg/ml) | Dynamic viscosity (¥) ([3]; plus DNASE 2.0 ug/ml) [cSt] | Dynamic viscosity (¥) ([3]; plus DNASE 4.0 ug/ml) [cSt] | Dynamic viscosity (¥) ([3]; plus DNASE 6.0 ug/ml) [cSt] | Dynamic viscosity (¥) ([3]; plus DNASE 8.0 ug/ml) [cSt] | Dynamic viscosity (¥) ([3]; plus DNASE 20 ug/ml) [cSt] | Dynamic viscosity (¥) ([3]; plus DNASE 10. ug/ml) [cSt] |
| --- | --- | --- | --- | --- | --- | --- | --- | --- | --- | --- | --- | --- | --- | --- |
| Bromelain | normal | – | – | – | – | – | – | – | – | – | – | – | – | – |
| B1 | – | 0.0627 | 0.075 | 0.082 | 0.09 | 0.1125 | 0.1044 | less compared to all the other treatment groups | 1.64 | 1.60 | 1.57 | 1.514 | 1.379 | 1.472 |
